Test results published in patent US20220259307A1 (Memorial Sloan Kettering, published 2022).

Experiments:
[1] = target: T1, CD33 (immobilized on CM5 sensor chip) (UniProt P20138 18-259, limits assumed); experiment: SPR (Biacore T-200), CD33 immobilized on CM5 chip
T1 construct: also called CD33 antigen

[2] = target: full length CD33 on cells (human, UniProt P20138 18-364); experiment: cell-based or functional assay
Chain of full length CD33 on cells (P20138 18-364): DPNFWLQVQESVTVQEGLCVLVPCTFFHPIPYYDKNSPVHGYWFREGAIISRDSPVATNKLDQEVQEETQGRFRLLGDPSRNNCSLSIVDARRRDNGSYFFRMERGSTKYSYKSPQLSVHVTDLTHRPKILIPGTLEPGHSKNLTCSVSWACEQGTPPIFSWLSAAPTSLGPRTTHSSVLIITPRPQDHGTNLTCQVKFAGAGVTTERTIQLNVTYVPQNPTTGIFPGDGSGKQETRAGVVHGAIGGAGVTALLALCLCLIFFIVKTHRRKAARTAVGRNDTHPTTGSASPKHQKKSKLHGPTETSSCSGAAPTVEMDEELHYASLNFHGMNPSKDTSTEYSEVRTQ

T1 sequence (P20138 18-259 limits assumed): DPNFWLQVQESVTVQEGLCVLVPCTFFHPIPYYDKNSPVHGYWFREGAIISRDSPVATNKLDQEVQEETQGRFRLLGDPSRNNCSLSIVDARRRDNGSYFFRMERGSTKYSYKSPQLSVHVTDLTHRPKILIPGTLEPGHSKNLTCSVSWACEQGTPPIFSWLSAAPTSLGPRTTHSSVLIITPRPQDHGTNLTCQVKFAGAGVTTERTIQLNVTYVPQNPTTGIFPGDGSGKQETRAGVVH

Kd [1] [pM] | koff [1] [s⁻¹] | kon [1] [M⁻¹ s⁻¹] | Binder | EC50 of T cell cytotoxicity, 4-hour 51Cr release assay, C1498-CD33 cells [2] [pM] | EC50 of T cell cytotoxicity, 4-hour 51Cr release assay, THP1 cells [2] [pM]
1210 | 0.00597 | 4.95e+06 | humanized HIM34 BsAb L4H1 (bispecific antibody, human IgG1, V domains shown, Tested as a humanized HIM34×CD3 BsAb in the IgG-scFv format (human IgG1 N297A/K322A, humanized OKT3 scFv on the light chain)) VH: QVQLQQSGAEVVKPGASVKVSCKASGYSFTDYNMYWVRQAPGQGLEWIGYIDPYKGGTNYAQKFQGRVTMTVDKSSSTAYMELSRLRSDDTAVYYCAREMITAYYFDYWGQGSSVTVSS VL: DIQMTQSPSSLSASVGDRVTITCKASQDINKYIAWYQHKPGKAPKLLIYYASNLQPGVPSRFSGSGSGRDFTFTISSLQPEDIATYYCLQYDNLLTFGAGTKLELK | – | –
198 | 0.00017 | 861000 | humanized HIM34 BsAb L4H7 (bispecific antibody, human IgG1, V domains shown, Tested as a humanized HIM34×CD3 BsAb in the IgG-scFv format (human IgG1 N297A/K322A, humanized OKT3 scFv on the light chain)) VH: QVQLQQSGAEVKKPGASVKVSCKASGYSFTDYNMYWVRQAPGQGLEWIGYIDPYKGGTIYNQKFKGRATLTRDTSISTAYMELSRLRSDDTAVYYCAREMITAYYFDYWGQGSSVTVSS VL: DIQMTQSPSSLSASVGDRVTITCKASQDINKYIAWYQHKPGKAPKLLIYYASNLQPGVPSRFSGSGSGRDFTFTISSLQPEDIATYYCLQYDNLLTFGAGTKLELK | – | –

The next lines start with the binder.

Binder | Kd [1] [pM] | koff [1] [s⁻¹] | kon [1] [M⁻¹ s⁻¹] | EC50 of T cell cytotoxicity, 4-hour 51Cr release assay, C1498-CD33 cells [2] [pM] | EC50 of T cell cytotoxicity, 4-hour 51Cr release assay, THP1 cells [2] [pM]
humanized HIM34 BsAb L4H4 (bispecific antibody, human IgG1, V domains shown, Tested as a humanized HIM34×CD3 BsAb in the IgG-scFv format (human IgG1 N297A/K322A, humanized OKT3 scFv on the light chain)) VH: QVQLVQSGAEVKKPGASVKVSCKASGYSFTDYNMYWVRQAPGQGLEWIGYIDPYKGGTNYAQKFQGRATLTVDKSSSTAYMELSRLRSDDTAVYYCAREMITAYYFDYWGQGSSVTVSS VL: DIQMTQSPSSLSASVGDRVTITCKASQDINKYIAWYQHKPGKAPKLLIYYASNLQPGVPSRFSGSGSGRDFTFTISSLQPEDIATYYCLQYDNLLTFGAGTKLELK | 1650 | 0.00743 | 4.5e+06 | – | –
humanized HIM34 BsAb L3H4 (bispecific antibody, human IgG1, V domains shown, Tested as a humanized HIM34×CD3 BsAb in the IgG-scFv format: human IgG1 with N297A/K322A, humanized OKT3 scFv on the light chain C-terminus via (G4S)3) VH: QVQLVQSGAEVKKPGASVKVSCKASGYSFTDYNMYWVRQAPGQGLEWIGYIDPYKGGTNYAQKFQGRATLTVDKSSSTAYMELSRLRSDDTAVYYCAREMITAYYFDYWGQGSSVTVSS VL: DIQMTQSPSSLSASVGDRVTITCKASQDINKYIAWYQHKPGKAPKLLIHYTSTLETGVPSRFSGSGSGTDFTFTISSLQPEDIATYYCLQYDNLLTFGAGTKLELK | 955 | 0.00175 | 1.84e+06 | – | –
chimeric HIM34×CD3 bispecific antibody (chHIM34 BsAb) (bispecific antibody, IgG-scFv format (tetravalent); also called chHIM34×CD3 BsAb; chimeric CD33-BsAb) light: DIVMTQSPSSLSASLGGKVTITCKASQDINKYIAWYQHKPGKGPRLLIHYTSTLQPGIPSRFSGSGSGRDYSFSISNLEPEDIATYYCLQYDNLLTFGAGTKLELKRTVAAPSVFIFPPSDEQLKSGTASVVCLLNNFYPREAKVQWKVDNALQSGNSQESVTEQDSKDSTYSLSSTLTLSKADYEKHKVYACEVTHQGLSSPVTKSFNRGECTSGGGGSGGGGSGGGGSQVQLVQSGGGVVQPGRSLRLSCKASGYTFTRYTMHWVRQAPGKCLEWIGYINPSRGYTNYNQKFKDRFTISRDNSKNTAFLQMDSLRPEDTGVYFCARYYDDHYSLDYWGQGTPVTVSSGGGGSGGGGSGGGGSGGGGSGGGGSGGGGSDIQMTQSPSSLSASVGDRVTITCSASSSVSYMNWYQQTPGKAPKRWIYDTSKLASGVPSRFSGSGSGTDYTFTISSLQPEDIATYYCQQWSSNPFTFGCGTKLQITR heavy: not shown | 128 | 0.000117 | 914000 | 0.001 | 0.2
